Article PMC10397247

Columns and labels:
[1] = target: T1, 4H2621-AA; assay: two-hybrid library CCmax; settings: mean of both orientations;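 note: natural log of median RNA to DNA barcode read ratio; higher means stronger binding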
T1 chain: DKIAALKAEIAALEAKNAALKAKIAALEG

[2] = target: T2, 4H3449-AA; assay: two-hybrid library CCmax; settings: mean of both orientations;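 note: natural log of median RNA to DNA barcode read ratio; higher means stronger binding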
T2 chain: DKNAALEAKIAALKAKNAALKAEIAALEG

[3] = target: T3, 4H446-AA; assay: two-hybrid library CCmax; settings: mean of both orientations;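 note: natural log of median RNA to DNA barcode read ratio; higher means stronger binding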
T3 chain: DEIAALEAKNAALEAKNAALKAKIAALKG

[4] = target: T4, 4H2580-AA; assay: two-hybrid library CCmax; settings: mean of both orientations;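 note: natural log of median RNA to DNA barcode read ratio; higher means stronger binding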
T4 chain: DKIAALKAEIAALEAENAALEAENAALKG

[5] = target: T5, 4H235-AA; assay: two-hybrid library CCmax; settings: mean of both orientations;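 note: natural log of median RNA to DNA barcode read ratio; higher means stronger binding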
T5 chain: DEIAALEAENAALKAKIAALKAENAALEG

[6] = target: T6, 4H3974-AA; assay: two-hybrid library CCmax; settings: mean of both orientations;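 note: natural log of median RNA to DNA barcode read ratio; higher means stronger binding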
T6 chain: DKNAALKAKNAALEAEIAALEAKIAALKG

[7] = target: T7, 4H3619-AA; assay: two-hybrid library CCmax; settings: mean of both orientations
T7 chain: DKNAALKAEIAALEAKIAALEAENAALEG

[8] = target: T8, 4H2760-AA; assay: two-hybrid library CCmax; settings: mean of both orientations
T8 chain: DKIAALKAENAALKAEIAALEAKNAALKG

[9] = target: T9, 4H2774-AA; assay: two-hybrid library CCmax; settings: mean of both orientations
T9 chain: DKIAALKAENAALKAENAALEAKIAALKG

[10] = target: T10, 4H3094-AA; assay: two-hybrid library CCmax; settings: mean of both orientations
T10 chain: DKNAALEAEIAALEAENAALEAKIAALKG

[11] = target: T11, 4H2903-AA; assay: two-hybrid library CCmax; settings: mean of both orientations
T11 chain: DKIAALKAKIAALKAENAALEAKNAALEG

[12] = target: T12, 4H324-AA; assay: two-hybrid library CCmax; settings: mean of both orientations
T12 chain: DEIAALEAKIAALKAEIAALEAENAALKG

[13] = target: T13, 4H380-AA; assay: two-hybrid library CCmax; settings: mean of both orientations
T13 chain: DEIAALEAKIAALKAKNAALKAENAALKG

[14] = target: T14, 4H1593-AA; assay: two-hybrid library CCmax
T14 chain: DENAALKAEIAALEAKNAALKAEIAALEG

[15] = target: T15, 4H2961-AA; assay: two-hybrid library CCmax; settings: mean of both orientations
T15 chain: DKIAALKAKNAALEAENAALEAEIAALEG

[16] = target: T16, 4H249-AA; assay: two-hybrid library CCmax; settings: mean of both orientations
T16 chain: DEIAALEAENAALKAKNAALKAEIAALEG

[17] = target: T17, 4H2604-AA; assay: two-hybrid library CCmax; settings: mean of both orientations
T17 chain: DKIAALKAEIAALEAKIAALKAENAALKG

[18] = target: T18, 4H63-AA; assay: two-hybrid library CCmax; settings: mean of both orientations
T18 chain: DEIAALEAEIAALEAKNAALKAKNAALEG

[19] = target: T19, 4H341-AA; assay: two-hybrid library CCmax; settings: mean of both orientations
T19 chain: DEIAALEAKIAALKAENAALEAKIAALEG

[20] = target: T20, 4H3629-AA; assay: two-hybrid library CCmax; settings: mean of both orientations
T20 chain: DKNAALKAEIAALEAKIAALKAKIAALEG

[21] = target: T21, 4H2947-AA; assay: two-hybrid library CCmax; settings: mean of both orientations
T21 chain: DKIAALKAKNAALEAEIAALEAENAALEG

[22] = target: T22, 4H432-AA; assay: two-hybrid library CCmax; settings: mean of both orientations
T22 chain: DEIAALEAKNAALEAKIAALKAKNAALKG

[23] = target: T23, 4H3049-AA; assay: two-hybrid library CCmax; settings: mean of both orientations
T23 chain: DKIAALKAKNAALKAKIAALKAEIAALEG

[24] = target: T24, 4H3777-AA; assay: two-hybrid library CCmax; settings: mean of both orientations
T24 chain: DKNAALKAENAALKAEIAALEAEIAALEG

[25] = target: T25, 4H3915-AA; assay: two-hybrid library CCmax; settings: mean of both orientations
T25 chain: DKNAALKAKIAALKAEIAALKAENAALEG

[26] = target: T26, 4H1878-AA; assay: two-hybrid library CCmax; settings: mean of both orientations
T26 chain: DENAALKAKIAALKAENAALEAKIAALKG

[27] = target: T27, 4H2702-bH; assay: two-hybrid library CCNG1
T27 chain: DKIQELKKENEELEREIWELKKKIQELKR

[28] = target: T28, 4H3010-bH; assay: two-hybrid library CCNG1
T28 chain: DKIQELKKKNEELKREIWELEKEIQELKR

[29] = target: T29, 4H4073-bH; assay: two-hybrid library CCNG1
T29 chain: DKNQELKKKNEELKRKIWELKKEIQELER

[30] = target: T30, 4H2627-bH; assay: two-hybrid library CCNG1
T30 chain: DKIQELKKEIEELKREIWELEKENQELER

[31] = target: T31, 4H2673-bH; assay: two-hybrid library CCNG1
T31 chain: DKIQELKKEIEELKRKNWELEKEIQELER

[32] = target: T32, 4H370-bN; assay: two-hybrid library CCNG1
T32 chain: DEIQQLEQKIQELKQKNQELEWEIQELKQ

[33] = target: T33, 4H754-bH; assay: two-hybrid library CCNG1
T33 chain: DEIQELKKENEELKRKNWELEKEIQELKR

[34] = target: T34, 4H953-bH; assay: two-hybrid library CCNG1
T34 chain: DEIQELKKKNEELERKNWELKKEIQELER

[35] = target: T35, 4H3427-bH; assay: two-hybrid library CCNG1
T35 chain: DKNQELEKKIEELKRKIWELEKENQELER

[36] = target: T36, 4H780-bH; assay: two-hybrid library CCNG1
T36 chain: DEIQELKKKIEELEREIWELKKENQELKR

[37] = target: T37, 4H968-bH; assay: two-hybrid library CCNG1
T37 chain: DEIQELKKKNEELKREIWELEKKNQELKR

[38] = target: T38, 4H3354-bH; assay: two-hybrid library CCNG1
T38 chain: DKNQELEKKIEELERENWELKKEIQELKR

[39] = target: T39, 4H575-bH; assay: two-hybrid library CCNG1
T39 chain: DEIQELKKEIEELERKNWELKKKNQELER

[40] = target: T40, 4H346-bH; assay: two-hybrid library CCNG1
T40 chain: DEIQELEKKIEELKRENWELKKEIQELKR

[41] = target: T41, 4H3112-bH; assay: two-hybrid library CCNG1
T41 chain: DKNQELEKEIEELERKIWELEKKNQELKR

[42] = target: T42, 4H918-bH; assay: two-hybrid library CCNG1
T42 chain: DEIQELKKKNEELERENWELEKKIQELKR

[43] = target: T43, 4H855-bH; assay: two-hybrid library CCNG1
T43 chain: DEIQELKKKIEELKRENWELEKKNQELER

[44] = target: T44, 4H2586-bH; assay: two-hybrid library CCNG1
T44 chain: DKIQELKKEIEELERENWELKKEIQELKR

[45] = target: T45, 4H3926-bH; assay: two-hybrid library CCNG1
T45 chain: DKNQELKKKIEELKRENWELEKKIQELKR

[46] = target: T46, 4H797-bH; assay: two-hybrid library CCNG1
T46 chain: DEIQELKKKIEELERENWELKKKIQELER

[47] = target: T47, 4H457-bH; assay: two-hybrid library CCNG1
T47 chain: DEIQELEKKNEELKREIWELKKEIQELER

[48] = target: T48, 4H683-bH; assay: two-hybrid library CCNG1
T48 chain: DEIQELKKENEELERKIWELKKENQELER

[49] = target: T49, 4H918-bN; assay: two-hybrid library CCNG1
T49 chain: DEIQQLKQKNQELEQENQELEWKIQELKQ

[50] = target: T50, 4H342-bA; assay: two-hybrid library CCNG1
T50 chain: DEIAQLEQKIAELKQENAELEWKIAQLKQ

[51] = target: T51, O3; assay: two-hybrid library CCNG1
T51 chain: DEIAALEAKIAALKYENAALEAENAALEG

[52] = target: T52, 4H48-bA; assay: two-hybrid library CCNG1
T52 chain: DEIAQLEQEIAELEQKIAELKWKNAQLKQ

[53] = target: T53, 4H491-bA; assay: two-hybrid library CCNG1
T53 chain: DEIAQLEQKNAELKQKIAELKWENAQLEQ

[54] = target: T54, 4H496-bA; assay: two-hybrid library CCNG1
T54 chain: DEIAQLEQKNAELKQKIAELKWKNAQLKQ

[55] = target: T55, 4H3632-bA; assay: two-hybrid library CCNG1
T55 chain: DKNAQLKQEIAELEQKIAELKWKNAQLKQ

[56] = target: T56, P8bH1; assay: two-hybrid library CCNG1
T56 chain: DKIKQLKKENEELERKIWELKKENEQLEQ

[57] = target: T57, P3bH1; assay: two-hybrid library CCNG1
T57 chain: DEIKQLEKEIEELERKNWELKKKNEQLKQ

[58] = target: T58, P4bH1; assay: two-hybrid library CCNG1
T58 chain: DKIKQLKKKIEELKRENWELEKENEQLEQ

[59] = target: T59, P9bH1; assay: two-hybrid library CCNG1
T59 chain: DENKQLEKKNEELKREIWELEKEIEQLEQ

[60] = target: T60, P6bH1; assay: two-hybrid library CCNG1
T60 chain: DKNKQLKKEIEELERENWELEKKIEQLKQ

[61] = target: T61, P7bH1; assay: two-hybrid library CCNG1
T61 chain: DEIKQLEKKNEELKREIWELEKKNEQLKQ

[62] = target: T62, P5bH1; assay: two-hybrid library CCNG1
T62 chain: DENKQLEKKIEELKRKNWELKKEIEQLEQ

Question: How did the interaction score [1] turn out when DENAALKAEIAALEAKNAALKAEIAALEG [4H1593-AA] was run?
Answer: -0.899

Question: And the interaction score [2]?
Answer: -1.62

Question: What about the interaction score [3] of the same binder?
Answer: -1.84

Question: And the interaction score [4]?
Answer: -0.97

Question: What about the interaction score [5] of the same binder?
Answer: 0.603

Question: And the interaction score [6]?
Answer: -1.15

Question: And the interaction score [7]?
Answer: -1.38

Question: What about the interaction score [8] of the same binder?
Answer: -0.517

Question: What about the interaction score [9] of the same binder?
Answer: -0.0172

Question: What about the interaction score [10] of the same binder?
Answer: 1.88

Question: What about the interaction score [11] of the same binder?
Answer: -0.456

Question: What about the interaction score [12] of the same binder?
Answer: -1.58

Question: And the interaction score [13]?
Answer: -1.5

Question: And the interaction score [14]?
Answer: -1.04

Question: And the interaction score [15]?
Answer: -1.89

Question: What about the interaction score [16] of the same binder?
Answer: -1.77

Question: And the interaction score [17]?
Answer: 0.383

Question: What about the interaction score [18] of the same binder?
Answer: -1.97

Question: And the interaction score [19]?
Answer: 2.13

Question: What about the interaction score [20] of the same binder?
Answer: -0.594

Question: What about the interaction score [21] of the same binder?
Answer: -1.37

Question: What about the interaction score [22] of the same binder?
Answer: -0.391

Question: And the interaction score [23]?
Answer: -0.661

Question: What about the interaction score [24] of the same binder?
Answer: -1.54

Question: And the interaction score [25]?
Answer: -1.62

Question: And the interaction score [26]?
Answer: 2.3

Question: What does the source list for DKIQELKKEIEELERENWELKKEIQELKR [4H2586-bH]?
Answer: interaction score [27]: 0.0111; interaction score [28]: 0.779; interaction score [29]: 0.357; interaction score [30]: 0.688; interaction score [31]: 1.76; interaction score [32]: 0.548; interaction score [33]: -0.599; interaction score [34]: 0.313; interaction score [35]: 0.762; interaction score [36]: -1.12; interaction score [37]: -0.864; interaction score [38]: 0.825; interaction score [39]: 0.499; interaction score [40]: 0.563; interaction score [41]: -1.96; interaction score [42]: -0.131; interaction score [43]: 0.679; interaction score [44]: 1.34; interaction score [45]: 1.73; interaction score [46]: 0.65; interaction score [47]: -0.749; interaction score [48]: 0.126

Question: What does the source list for DEIAQLEQKIAELKQENAELEWKIAQLKQ [4H342-bA]?
Answer: interaction score [49]: -0.0267; interaction score [50]: 1.64; interaction score [51]: -1.6; interaction score [52]: 0.0458; interaction score [53]: 1.5; interaction score [54]: 2.13; interaction score [55]: 0.725

Question: For DKNAQLKQEIAELEQKIAELKWKNAQLKQ [4H3632-bA], which interaction score [54] is on record?
Answer: 0.728

Question: And the interaction score [55]?
Answer: 1.23

Question: Which results are given for DEIKQLEKEIEELERKNWELKKKNEQLKQ [P3bH1]?
Answer: interaction score [56]: 0.173; interaction score [57]: -0.241; interaction score [58]: 1.13; interaction score [59]: -0.408; interaction score [60]: 0.419; interaction score [61]: -0.271; interaction score [62]: 1.1
